Results as given in US11180770B2, “HPPD variants and methods of use” (BASF Agricultural Solutions Seed US LLC, priority 2017, dated 2021).

Test system: HPPD polypeptides
Experiment: coupled HPPD activity assay: turnover and residual turnover in crude extracts
Type: biochemical, Pseudomonas fluorescens
Settings: for Residual turnover: presence of 100 μM Cmpd. 1, high substrate concentration, changes in absorbance (OD) at 320 nm; for turnover / residual turnover in the presence of Cmpd. 1 compared with a reference HPPD polypeptide, in words: comparison with the reference or parent polypeptide
Method: The activity of HPPD polypeptides was determined in absence or presence of HPPD inhibitors using the coupled HPPD activity assay (FIG. 1).
For the determination of the residual activity, the apparent kinetic constant (kapp) of the determined substrate conversion was measured as kinetic changes in absorbance (OD) at 320 nm in a coupled assay, in that homogentisate (HGA) formed by HPPD from HPP is directly converted into the well absorbing molecule maleylacetoacetate (MAA) by a second enzyme homogentisate dioxygenase (HGD), applied in excess uniformly in all assays (see FIG. 1). The measurements were performed in 384 micro titer plates (Greiner Bio-One GmbH, Frickenhausen, Germany) by plate readers (Tecan infinite M1000 or M1000PRO, Tecan, Männedorf, Switzerland). The kcat/kM ratio of an enzymatic activity is proportional to the apparent kinetic constant kapp and is proportional to kcat/kM*[E] ([E]=enzyme concentration). […] As both kapp measurements in the presence and absence of inhibitor were performed by use of the identical enzyme sample, crude or purified, and thereby at the same enzyme concentration, the enzyme concentration eliminates from the calculation of residual activity and the ratio of both kapp directly indicates the change of kM due to the inhibition.
The assay solution used for determination of residual activities in raw HPPD polypeptide samples was composed by 200 mM sodium phosphate (Merck, Darmstadt, Germany, pH 7.0), 5 mM MgCl2 (Merck, Darmstadt, Germany), 20 mM ascorbate (Sigma-Aldrich, St. Louis, USA), 1 mM DTT (Sigma-Aldrich, St. Louis, USA), 0.1% Pluronic F-68 (Sigma-Aldrich, St. Louis, USA), 40 μM FeSO4 (Sigma-Aldrich, St. Louis, USA), about 8 mg/ml purified HGD and 500 μM HPP from a 1 M stock solution in DMSO (Sigma-Aldrich, St. Louis, USA) and equilibrated for 20 min on ice. For every HPPD polypeptide sample two assays were performed in quadruplets, whereby 5 μl of HPPD polypeptide sample were mixed firstly with 5 μl buffer (1×BugBuster®; (Merck, Darmstadt, Germany); in 140 mM Tris, pH 7.8, with 1:25000 diluted BNase®; Qiagen, Hilden, Germany)) or 5 μl inhibitor diluted in the same buffer from a 0.1 M stock solution in DMSO (200 μM resulting in 100 μM in the HPPD polypeptide/inhibitor sample) in the reference and inhibition assay, respectively, and subsequently with 10 μl assay solution. The change in absorbance at 320 nm was followed in 1 min intervals for 30 min. The kapp values were calculated as signal slope over time in the early phase of the kinetic reaction, usually for the first 5-10 minutes of the measurements. Additionally and according to the calculated residual activity, the total conversion, i.e. the absolute change in signal, in the 30 min timeframe was monitored as measure of turnover, and a residual turnover was calculated by dividing the change in signal in the presence of inhibitor by the change in signal in the reference sample without inhibitor.
Residual turnover were determined according to Example 3 by measuring total change in signal in the presence and absence of Cmpd. 1 (2-chloro-3-(methylsulfanyl)-N-(1-methyl-1H-tetrazol-5-yl)-4-(trifluoromethyl)benzamide). For each mutant HPPD polypeptide, the total change in signal without HPPD inhibitor herbicides served for normalization of the total change in signal in the presence of the herbicide.

| Molecule | Residual turnover | turnover / residual turnover in the presence of Cmpd. 1 compared with a reference HPPD polypeptide, in words |
| --- | --- | --- |
| SEQ ID NO:2 (protein, mutant HPPD polypeptide) MADLYENPMGLMGFEFIEFASPTPGTLEPIFEIMGFTKVATHRSKNVHLYRQGEINLILNNEPNSIASYFAAEHGPSVCGMAFRVKDSQKAYNRALELGAQPIHIDTGPMELNLPAIKGIGGAPLYLIDRFGEGSSIYDIDFVYLEGVERNPVGAGLKVIDHLTHNVYRGRMVYWANFYEKLFNFREARYFDIKGEYTGLTSKAMSAPDGMIRIPLNEESSKGAGQIEEFLMQFNGEGIQHVAFLTDDLVKTWDALKKIGMRFMTAPPDTYYEMLEGRLPDHGEPVDQLQARGILLDGSSVEGDKRLLLQIFSETLMGPVFFEFIQRKGDDGFGPWNFAQLFESIERDQVRRGVLTAD | 0.026 |  |
| SEQ ID NO: 24: mutant PfHPPD: 268A 335P 336H 337S 340V (protein, mutant HPPD polypeptide, mutant PfHPPD: 268A 335P 336H 337S 340V) MADLYENPMGLMGFEFIEFASPTPGTLEPIFEIMGFTKVATHRSKNVHLYRQGEINLILNNEPNSIASYFAAEHGPSVCGMAFRVKDSQKAYNRALELGAQPIHIDTGPMELNLPAIKGIGGAPLYLIDRFGEGSSIYDIDFVYLEGVERNPVGAGLKVIDHLTHNVYRGRMVYWANFYEKLFNFREARYFDIKGEYTGLTSKAMSAPDGMIRIPLNEESSKGAGQIEEFLMQFNGEGIQHVAFLTDDLVKTWDALKKIGMRFMTAPADTYYEMLEGRLPDHGEPVDQLQARGILLDGSSVEGDKRLLLQIFSETLMGPVFFEFIQRKGDDGFGPHSFKVLFESIERDQVRRGVLTAD |  | increase in the residual turnover |
| SEQ ID NO:71 (protein, mutant HPPD polypeptide) MADLYENPMGLMGFEFIEFASPTPGTLEPIFEIMGFTKVATHRSKNVHLYRQGEINLILNNEPNSIASYFAAEHGPSVCGMAFRVKDSQKAYNRALELGAQPIHIDTGPMELNLPAIKGIGGAPLYLIDRFGEGSSIYDIDFVYLEGVERNPVGAGLKVIDHLTHNVYRGRMVYWANFYEKLFNFREARYFDIKGEYTGLTSKAMSAPDGMIRILLNEESSKGAGQIEEFLMQFNGEGIQHVAFLTDDLVKTWDALKKIGMRFMTAPPDTYYEMLEGRLPDHGEPVDQLQARGILLDGSSVEGDKRLLLQIFSETLMGPVFFEFIQRKGDDGFGPFNFKELFESIERDQVRRGVLTAD | 0.022 |  |
| SEQ ID NO: 6: mutant PfHPPD: 268A 270N 335P 336D 337S 340V (protein, mutant HPPD polypeptide, mutant PfHPPD: 268A 270N 335P 336D 337S 340V) MADLYENPMGLMGFEFIEFASPTPGTLEPIFEIMGFTKVATHRSKNVHLYRQGEINLILNNEPNSIASYFAAEHGPSVCGMAFRVKDSQKAYNRALELGAQPIHIDTGPMELNLPAIKGIGGAPLYLIDRFGEGSSIYDIDFVYLEGVERNPVGAGLKVIDHLTHNVYRGRMVYWANFYEKLFNFREARYFDIKGEYTGLTSKAMSAPDGMIRIPLNEESSKGAGQIEEFLMQFNGEGIQHVAFLTDDLVKTWDALKKIGMRFMTAPADNYYEMLEGRLPDHGEPVDQLQARGILLDGSSVEGDKRLLLQIFSETLMGPVFFEFIQRKGDDGFGPDSFKVLFESIERDQVRRGVLTAD |  | increase in the absolute turnover and absolute residual turnover |
| SEQ ID NO:3 (protein, mutant HPPD polypeptide) MADLYENPMGLMGFEFIEFASPTPGTLEPIFEIMGFTKVATHRSKNVHLYRQGEINLILNNEPNSIASYFAAEHGPSVCGMAFRVKDSQKAYNRALELGAQPIHIDTGPMELNLPAIKGIGGAPLYLIDRFGEGSSIYDIDFVYLEGVERNPVGAGLKVIDHLTHNVYRGRMVYWANFYEKLFNFREARYFDIKGEYTGLTSKAMSAPDGMIRIPLNEESSKGAGQIEEFLMQFNGEGIQHVAFLTDDLVKTWDALKKIGMRFMTAPADTYYEMLEGRLPDHGEPVDQLQARGILLDGSSVEGDKRLLLQIFSETLMGPVFFEFIQRKGDDGFGPDSFKVLFESIERDQVRRGVLTAD |  | improvement regarding residual turnovers |
